According to paper doi:10.1101/2023.09.29.560221 (bioRxiv, 2023):

T1: human Topoisomerase I (human, UniProt P11387 1-765)
T1 sequence: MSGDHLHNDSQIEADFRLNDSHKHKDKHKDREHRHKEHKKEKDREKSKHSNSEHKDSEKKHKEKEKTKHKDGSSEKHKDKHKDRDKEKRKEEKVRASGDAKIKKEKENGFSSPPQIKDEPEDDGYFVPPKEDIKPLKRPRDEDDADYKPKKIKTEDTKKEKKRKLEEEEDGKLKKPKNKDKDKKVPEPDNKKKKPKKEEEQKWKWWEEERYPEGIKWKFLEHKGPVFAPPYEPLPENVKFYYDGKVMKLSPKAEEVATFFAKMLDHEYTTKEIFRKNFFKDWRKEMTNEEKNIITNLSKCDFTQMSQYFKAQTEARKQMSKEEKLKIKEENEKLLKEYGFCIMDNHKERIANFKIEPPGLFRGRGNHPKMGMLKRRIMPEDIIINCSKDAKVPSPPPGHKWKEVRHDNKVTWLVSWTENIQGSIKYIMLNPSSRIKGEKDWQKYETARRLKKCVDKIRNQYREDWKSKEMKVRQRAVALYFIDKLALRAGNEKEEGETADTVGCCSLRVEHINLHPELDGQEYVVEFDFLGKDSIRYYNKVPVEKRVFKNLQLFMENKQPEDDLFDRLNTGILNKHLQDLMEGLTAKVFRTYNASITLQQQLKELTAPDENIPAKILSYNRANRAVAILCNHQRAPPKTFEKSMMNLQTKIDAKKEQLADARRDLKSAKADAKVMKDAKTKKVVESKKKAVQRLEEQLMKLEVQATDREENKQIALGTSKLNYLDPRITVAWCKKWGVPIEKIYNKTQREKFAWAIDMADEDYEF


Key:
human Topoisomerase I = molecular target: T1, human Topoisomerase I; assay: ELISA
native gel or EMSA = molecular target: the molecule itself; assay: native gel or EMSA

Binder	binding result (human Topoisomerase I)	stoichiometry N (native gel or EMSA)
SV40 Large T-antigen (LT), wild type, purified from insect cells (natural protein) MDKVLNREESLQLMDLLGLERSAWGNIPLMRKAYLKKCKEFHPDKGGDEEKMKKMNTLYKKMEDGVKYAHQPDFGGFWDATEIPTYGTDEWEQWWNAFNEENLFCSEEMPSSDDEATADSQHSTPPKKKRKVEDPKDFPSELLSFLSHAVFSNRTLACFAIYTTKEKAALLYKKIMEKYSVTFISRHNSYNHNILFFLTPHRHRVSAINNYAQKLCTFSFLICKGVNKEYLMYSALTRDPFSVIEESLPGGLKEHDFNPEEAEETKQVSWKLVTEYAMETKCDDVLLLLGMYLEFQYSFEMCLKCIKKEQPSHYKYHEKHYANAAIFADSKNQKTICQQAVDTVLAKKRVDSLQLTREQMLTNRFNDLLDRMDIMFGSTGSADIEEWMAGVAWLHCLLPKMDSVVYDFLKCMVYNIPKKRYWLFKGPIDSGKTTLAAALLELCGGKALNVNLPLDRLNFELGVAIDQFLVVFEDVKGTGGESRDLPSGQGINNLDNLRDYLDGSVKVNLEKKHLNKRTQIFPPGIVTMNEYSVPKTLQARFVKQIDFRPKDYLKHCLERSEFLLEKRIIQSGIALLLMLIWYRPVAEFAQSIQSRIVEWKERLDKEFSLSVYQKMKFNVAMGIGVLDWLRNSDDDDEDSQENADKNEDGGEKNMEDSGHETGIDSQSQGSFQAPQSSQSVHDHNQPYHICRGFTCFKKPPTPPPEPET	binds	–
SV40 Large T-antigen T518D (phosphomimetic mutant), purified from insect cells (natural protein) MDKVLNREESLQLMDLLGLERSAWGNIPLMRKAYLKKCKEFHPDKGGDEEKMKKMNTLYKKMEDGVKYAHQPDFGGFWDATEIPTYGTDEWEQWWNAFNEENLFCSEEMPSSDDEATADSQHSTPPKKKRKVEDPKDFPSELLSFLSHAVFSNRTLACFAIYTTKEKAALLYKKIMEKYSVTFISRHNSYNHNILFFLTPHRHRVSAINNYAQKLCTFSFLICKGVNKEYLMYSALTRDPFSVIEESLPGGLKEHDFNPEEAEETKQVSWKLVTEYAMETKCDDVLLLLGMYLEFQYSFEMCLKCIKKEQPSHYKYHEKHYANAAIFADSKNQKTICQQAVDTVLAKKRVDSLQLTREQMLTNRFNDLLDRMDIMFGSTGSADIEEWMAGVAWLHCLLPKMDSVVYDFLKCMVYNIPKKRYWLFKGPIDSGKTTLAAALLELCGGKALNVNLPLDRLNFELGVAIDQFLVVFEDVKGTGGESRDLPSGQGINNLDNLRDYLDGSVKVNLEKKHLNKRDQIFPPGIVTMNEYSVPKTLQARFVKQIDFRPKDYLKHCLERSEFLLEKRIIQSGIALLLMLIWYRPVAEFAQSIQSRIVEWKERLDKEFSLSVYQKMKFNVAMGIGVLDWLRNSDDDDEDSQENADKNEDGGEKNMEDSGHETGIDSQSQGSFQAPQSSQSVHDHNQPYHICRGFTCFKKPPTPPPEPET	binds	6
